Test [1] deals with purified human von Willebrand factor (human) (UniProt P04275). In words: ELISA: inhibition of plasma or purified vWF binding to coated human collagen type I.
The target is the same in test [2]. In words: cell-based or functional assay.
Test [3] concerns the target human collagen type I (human) (UniProt P02452). Kind of test: ex vivo ELISA, baboon plasma vWF on human collagen type I, % of pre-sample; 82D6A3 300 µg/kg, 30 min.
The target is the same in test [4]. Kind of test: ex vivo ELISA, baboon plasma vWF on human collagen type I, % of pre-sample; 82D6A3 300 µg/kg, 48 h.
Test [5] shares this target. In words: ex vivo ELISA, baboon plasma vWF on human collagen type I, % of pre-sample; 82D6A3 300 µg/kg, 24 h.
Test [6] has the same target. Kind of test: ex vivo ELISA, baboon plasma vWF on human collagen type I, % of pre-sample; 82D6A3 100 µg/kg, 60 min.
The target is the same in test [7]. In words: ex vivo ELISA, baboon plasma vWF on human collagen type I, % of pre-sample; 82D6A3 100 µg/kg, 30 min.
Test [8] shares this target. Kind of test: ex vivo ELISA, baboon plasma vWF on human collagen type I, % of pre-sample; 82D6A3 600 µg/kg, 150 min.
Test [9] has the same target. In words: ex vivo ELISA, baboon plasma vWF on human collagen type I, % of pre-sample; 82D6A3 600 µg/kg, 60 min.
For test [10] the target is unchanged. In words: ex vivo ELISA, baboon plasma vWF on human collagen type I, % of pre-sample; 82D6A3 300 µg/kg, 60 min.
The target is the same in test [11]. Kind of test: ex vivo ELISA, baboon plasma vWF on human collagen type I, % of pre-sample; 82D6A3 600 µg/kg, 30 min.
For test [12] the target is unchanged. In words: ex vivo ELISA, baboon plasma vWF on human collagen type I, % of pre-sample; 82D6A3 600 µg/kg, 24 h.
Test [13] shares this target. Kind of test: ex vivo ELISA, baboon plasma vWF on human collagen type I, % of pre-sample; 82D6A3 600 µg/kg group, 0 min.
Test [14] shares this target. Kind of test: ex vivo ELISA, baboon plasma vWF on human collagen type I, % of pre-sample; 82D6A3 600 µg/kg, 300 min.
Test [15] has the same target. Kind of test: ex vivo ELISA, baboon plasma vWF on human collagen type I, % of pre-sample; 82D6A3 300 µg/kg group, 0 min.
Test [16] shares this target. Kind of test: ex vivo ELISA, baboon plasma vWF on human collagen type I, % of pre-sample; 82D6A3 300 µg/kg, 150 min.
The target is the same in test [17]. In words: ex vivo ELISA, baboon plasma vWF on human collagen type I, % of pre-sample; 82D6A3 300 µg/kg, 300 min.
Test [18] has the same target. Kind of test: ex vivo ELISA, baboon plasma vWF on human collagen type I, % of pre-sample; 82D6A3 100 µg/kg group, 0 min.
Test [19] addresses baboon platelet GPIb (on baboon platelets) (baboon (Papio ursinus)). Kind of test: GPIb occupancy on baboon platelets, 300 minutes after bolus of 2 mg/kg.
For test [20] the target is unchanged. Kind of test: cell-based or functional assay.
Test [21] has the same target. Kind of test: GPIb occupancy on baboon platelets, 150 minutes after bolus of 4 mg/kg.
Test [22] shares this target. Kind of test: GPIb occupancy on baboon platelets, 150 minutes after bolus of 2 mg/kg.
Test [23] shares this target. Kind of test: GPIb occupancy on baboon platelets, 60 minutes after bolus of 2 mg/kg.
The target is the same in test [24]. Kind of test: GPIb occupancy on baboon platelets, 30 minutes after bolus of 2 mg/kg.
Test [25] has the same target. In words: GPIb occupancy on baboon platelets, 300 minutes after bolus of 600 µg/kg.
Test [26] shares this target. In words: 125I-labelled fragment on baboon platelets in plasma.
Test [27] has the same target. In words: GPIb occupancy on baboon platelets, 150 minutes after bolus of 600 µg/kg.
Test [28] has the same target. Kind of test: GPIb occupancy on baboon platelets, 60 minutes after bolus of 600 µg/kg.
Test [29] shares this target. Kind of test: GPIb occupancy on baboon platelets, 60 minutes after bolus of 4 mg/kg.
Test [30] has the same target. Kind of test: GPIb occupancy on baboon platelets, 30 minutes after bolus of 4 mg/kg.
Test [31] has the same target. Kind of test: GPIb occupancy on baboon platelets, 300 minutes after bolus of 4 mg/kg.
Test [32] shares this target. In words: GPIb occupancy on baboon platelets, 30 minutes after bolus of 600 µg/kg.
The target in test [33] is mouse GPIIb/IIIa (on mouse platelets) (mouse) (UniProt Q9QUM0). In words: receptor occupancy on platelets of mice after 20 µg JON/A F(ab)2 i.v.
Sequence of mouse GPIIb/IIIa (on mouse platelets) (mouse) (Q9QUM0 32-1033, chain 1 of 2): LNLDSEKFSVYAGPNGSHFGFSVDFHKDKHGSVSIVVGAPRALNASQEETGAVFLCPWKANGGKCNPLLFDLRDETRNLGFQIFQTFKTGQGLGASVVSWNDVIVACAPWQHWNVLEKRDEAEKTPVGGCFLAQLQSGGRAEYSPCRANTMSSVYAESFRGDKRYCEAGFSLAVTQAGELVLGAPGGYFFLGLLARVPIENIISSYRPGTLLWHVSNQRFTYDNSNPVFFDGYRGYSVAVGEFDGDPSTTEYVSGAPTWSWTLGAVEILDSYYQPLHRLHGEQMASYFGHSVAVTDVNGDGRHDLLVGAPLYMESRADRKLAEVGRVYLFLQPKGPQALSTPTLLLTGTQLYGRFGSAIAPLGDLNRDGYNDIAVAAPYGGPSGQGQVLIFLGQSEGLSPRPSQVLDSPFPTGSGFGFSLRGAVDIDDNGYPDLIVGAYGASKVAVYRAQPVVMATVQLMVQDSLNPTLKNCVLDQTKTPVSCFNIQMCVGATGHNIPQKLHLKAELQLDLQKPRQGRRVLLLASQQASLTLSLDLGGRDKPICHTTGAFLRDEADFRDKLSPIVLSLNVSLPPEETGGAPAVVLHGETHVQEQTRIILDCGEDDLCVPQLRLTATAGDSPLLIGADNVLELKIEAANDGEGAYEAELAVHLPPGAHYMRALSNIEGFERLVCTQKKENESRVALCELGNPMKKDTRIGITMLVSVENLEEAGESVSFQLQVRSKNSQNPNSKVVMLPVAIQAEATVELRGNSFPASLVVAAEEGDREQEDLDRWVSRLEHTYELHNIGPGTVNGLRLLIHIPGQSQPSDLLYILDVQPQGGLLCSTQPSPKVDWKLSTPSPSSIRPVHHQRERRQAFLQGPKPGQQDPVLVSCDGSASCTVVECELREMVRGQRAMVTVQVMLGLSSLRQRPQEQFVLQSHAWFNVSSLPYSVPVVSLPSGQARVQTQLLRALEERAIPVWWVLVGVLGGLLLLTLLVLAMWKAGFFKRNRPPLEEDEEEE
Sequence of mouse GPIIb/IIIa (on mouse platelets) (mouse) (O54890 26-787, chain 2 of 2, further chain): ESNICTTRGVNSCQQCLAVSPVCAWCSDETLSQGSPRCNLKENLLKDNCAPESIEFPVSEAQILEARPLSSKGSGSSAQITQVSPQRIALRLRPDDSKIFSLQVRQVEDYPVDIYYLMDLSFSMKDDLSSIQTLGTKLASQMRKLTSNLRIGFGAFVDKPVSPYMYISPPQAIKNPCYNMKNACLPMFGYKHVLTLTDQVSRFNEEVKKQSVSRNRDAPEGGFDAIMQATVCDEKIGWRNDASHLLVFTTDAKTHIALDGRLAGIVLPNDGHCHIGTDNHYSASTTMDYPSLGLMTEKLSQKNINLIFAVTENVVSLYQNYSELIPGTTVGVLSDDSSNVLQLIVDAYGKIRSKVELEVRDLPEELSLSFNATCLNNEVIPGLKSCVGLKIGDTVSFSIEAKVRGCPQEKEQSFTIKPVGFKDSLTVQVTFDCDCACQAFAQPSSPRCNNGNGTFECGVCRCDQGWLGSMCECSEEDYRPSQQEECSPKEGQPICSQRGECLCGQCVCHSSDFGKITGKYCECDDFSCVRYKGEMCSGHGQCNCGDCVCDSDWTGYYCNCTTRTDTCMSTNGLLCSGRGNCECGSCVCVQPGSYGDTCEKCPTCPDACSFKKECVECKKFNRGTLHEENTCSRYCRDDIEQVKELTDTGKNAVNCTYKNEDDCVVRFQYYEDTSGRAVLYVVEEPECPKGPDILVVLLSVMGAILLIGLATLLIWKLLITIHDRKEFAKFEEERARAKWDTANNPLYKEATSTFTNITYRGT
The target is the same in test [34]. Kind of test: receptor occupancy on platelets of mice after 10 µg JON/A F(ab)2 i.v.
The target is the same in test [35]. Kind of test: receptor occupancy on platelets of mice after 100 µg JON/A F(ab)2 i.v.

Sequence of human collagen type I (human) (P02452 162-1218, chain 1 of 2): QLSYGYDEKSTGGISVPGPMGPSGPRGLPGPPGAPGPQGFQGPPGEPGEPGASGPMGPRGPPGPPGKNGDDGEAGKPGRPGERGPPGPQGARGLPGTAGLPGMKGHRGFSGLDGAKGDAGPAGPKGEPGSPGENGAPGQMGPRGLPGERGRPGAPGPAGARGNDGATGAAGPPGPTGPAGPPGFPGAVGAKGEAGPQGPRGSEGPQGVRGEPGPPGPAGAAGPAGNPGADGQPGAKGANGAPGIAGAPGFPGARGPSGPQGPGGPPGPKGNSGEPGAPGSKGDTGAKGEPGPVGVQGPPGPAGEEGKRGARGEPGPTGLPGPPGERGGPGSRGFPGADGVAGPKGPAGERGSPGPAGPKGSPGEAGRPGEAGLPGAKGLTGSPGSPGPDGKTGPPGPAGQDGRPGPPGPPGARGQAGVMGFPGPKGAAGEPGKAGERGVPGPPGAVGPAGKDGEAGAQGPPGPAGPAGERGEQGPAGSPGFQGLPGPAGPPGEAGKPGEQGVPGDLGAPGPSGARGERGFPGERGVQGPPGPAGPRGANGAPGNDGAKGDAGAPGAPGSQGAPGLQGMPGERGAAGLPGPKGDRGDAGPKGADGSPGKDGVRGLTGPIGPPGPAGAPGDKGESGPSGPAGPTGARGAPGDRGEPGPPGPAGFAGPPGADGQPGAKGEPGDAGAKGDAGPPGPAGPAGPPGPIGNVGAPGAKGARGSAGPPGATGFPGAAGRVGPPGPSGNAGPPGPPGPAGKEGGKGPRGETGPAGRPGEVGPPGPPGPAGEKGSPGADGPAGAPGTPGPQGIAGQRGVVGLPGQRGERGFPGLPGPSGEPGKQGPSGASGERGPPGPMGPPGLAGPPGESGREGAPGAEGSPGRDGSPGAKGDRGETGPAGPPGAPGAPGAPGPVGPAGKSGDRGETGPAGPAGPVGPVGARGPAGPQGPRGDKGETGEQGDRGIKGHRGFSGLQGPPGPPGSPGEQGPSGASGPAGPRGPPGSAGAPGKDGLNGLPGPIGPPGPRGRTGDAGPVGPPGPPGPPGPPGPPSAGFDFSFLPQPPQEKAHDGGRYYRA
Sequence of human collagen type I (human) (P08123 80-1119, chain 2 of 2, further chain): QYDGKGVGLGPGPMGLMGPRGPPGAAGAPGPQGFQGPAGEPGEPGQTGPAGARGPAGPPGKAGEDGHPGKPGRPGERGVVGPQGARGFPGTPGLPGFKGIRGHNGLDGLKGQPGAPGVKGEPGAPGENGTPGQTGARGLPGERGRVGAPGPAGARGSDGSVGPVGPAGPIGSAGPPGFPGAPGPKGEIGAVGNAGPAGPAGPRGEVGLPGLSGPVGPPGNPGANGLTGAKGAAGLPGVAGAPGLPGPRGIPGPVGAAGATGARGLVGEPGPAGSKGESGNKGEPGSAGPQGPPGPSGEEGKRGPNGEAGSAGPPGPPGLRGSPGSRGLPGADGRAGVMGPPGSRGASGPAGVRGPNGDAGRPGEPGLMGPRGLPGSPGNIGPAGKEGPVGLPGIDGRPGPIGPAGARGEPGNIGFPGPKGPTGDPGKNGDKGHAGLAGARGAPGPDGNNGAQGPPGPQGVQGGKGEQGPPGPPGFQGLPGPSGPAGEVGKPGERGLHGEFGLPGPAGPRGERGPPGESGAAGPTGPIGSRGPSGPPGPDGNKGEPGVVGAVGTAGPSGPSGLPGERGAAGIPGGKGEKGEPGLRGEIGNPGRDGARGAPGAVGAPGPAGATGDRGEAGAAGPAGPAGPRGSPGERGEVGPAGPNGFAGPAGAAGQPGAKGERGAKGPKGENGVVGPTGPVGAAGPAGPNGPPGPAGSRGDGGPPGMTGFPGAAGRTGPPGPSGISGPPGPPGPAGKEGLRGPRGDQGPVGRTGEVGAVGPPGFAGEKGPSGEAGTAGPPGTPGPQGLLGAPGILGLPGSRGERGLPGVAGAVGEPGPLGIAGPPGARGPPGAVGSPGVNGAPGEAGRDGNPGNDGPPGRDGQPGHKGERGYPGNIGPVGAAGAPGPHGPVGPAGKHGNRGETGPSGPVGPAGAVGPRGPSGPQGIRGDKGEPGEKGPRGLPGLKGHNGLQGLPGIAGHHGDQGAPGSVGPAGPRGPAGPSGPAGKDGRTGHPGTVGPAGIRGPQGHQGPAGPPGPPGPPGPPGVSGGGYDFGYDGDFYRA
Sequence of baboon platelet GPIb (on baboon platelets) (baboon (Papio ursinus)) (A0A096 entry or part of it limits assumed, form in doubt): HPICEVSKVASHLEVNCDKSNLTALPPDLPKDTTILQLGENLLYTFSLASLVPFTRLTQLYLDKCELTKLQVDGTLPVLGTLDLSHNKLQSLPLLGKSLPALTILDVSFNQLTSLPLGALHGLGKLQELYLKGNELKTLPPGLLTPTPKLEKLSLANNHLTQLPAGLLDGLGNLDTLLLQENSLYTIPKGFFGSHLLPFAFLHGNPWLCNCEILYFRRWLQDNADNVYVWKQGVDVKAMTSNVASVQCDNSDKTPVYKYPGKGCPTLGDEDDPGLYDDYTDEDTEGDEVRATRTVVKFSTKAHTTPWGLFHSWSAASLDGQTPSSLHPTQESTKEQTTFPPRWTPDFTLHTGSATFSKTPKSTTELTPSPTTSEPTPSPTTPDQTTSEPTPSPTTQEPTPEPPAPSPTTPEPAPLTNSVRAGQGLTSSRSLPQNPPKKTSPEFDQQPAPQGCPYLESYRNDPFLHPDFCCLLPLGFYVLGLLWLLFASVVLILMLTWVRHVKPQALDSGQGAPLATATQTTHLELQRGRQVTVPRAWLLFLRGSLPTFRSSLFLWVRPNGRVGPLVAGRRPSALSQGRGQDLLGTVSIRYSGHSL

For the substance 82D6A3 F(ab) fragment (Fab), the IC50 in [1] came to 1 µg/mL. The concentration for complete inhibition of platelet deposition on human collagen type I under flow, shear rate 1300 s^-1 in test [2] worked out at 10 µg/mL.
As to “baboon vWF (in baboon plasma), A0A096N8H2 764-2813”, the collagen binding (%) in [3] turned out to be 4%; in [4], 93%; in test [5], 91%; in [6] it was 69%; in test [7] it was 64%; in test [8] it was 3.52%. Besides, the collagen binding (%) in [9] was 3.5%; in [10], 4%; in [11] it was 4%; in test [12], 45%; in test [13], 100%; in test [14], 4%. Further, the collagen binding (%) in [15] is 101%; in [16] it was 4%; in test [17], 4%; in test [18], 101%.
For the substance 6B4 Fab fragments, the receptor occupancy in test [19] was 12.9%. In test [20], this substance had a % inhibition of ex vivo ristocetin-induced (1.5 mg/mL) platelet agglutination; after 160 µg/kg, time 270 min of 8%; a % inhibition of ex vivo ristocetin-induced (1.5 mg/mL) platelet agglutination; after 640 µg/kg, time 270 min of 15%; a % inhibition of ex vivo ristocetin-induced (1.5 mg/mL) platelet agglutination; after 640 µg/kg, time 24 h of 7%; a % inhibition of ex vivo ristocetin-induced (1.5 mg/mL) platelet agglutination; dose 80 µg/kg, time 90 min of 26%. In [20], this substance had a % inhibition of ex vivo ristocetin-induced (1.5 mg/mL) platelet agglutination; dose 160 µg/kg, time 150 min of 47%; a % inhibition of ex vivo ristocetin-induced (1.5 mg/mL) platelet agglutination; dose 320 µg/kg, time 90 min of 25%; a % inhibition of ex vivo ristocetin-induced (1.5 mg/mL) platelet agglutination; dose 640 µg/kg, time 150 min of 80%; an IC50 of ristocetin-induced baboon platelet aggregation of 40 nM. In addition, in test [20], the ex vivo ristocetin-induced platelet aggregation, % of the response before injection; 600 µg/kg, 60 minutes was 16.8%; the ex vivo ristocetin-induced platelet aggregation, % of the response before injection; 600 µg/kg, 150 minutes was found to be 68.8%; the ex vivo ristocetin-induced platelet aggregation, % of the response before injection; 2 mg/kg, 60 minutes came to 5.2%; the ex vivo ristocetin-induced platelet aggregation, % of the response before injection; 2 mg/kg, 150 minutes was found to be 19.2%. Moreover, in test [20], the ex vivo ristocetin-induced platelet aggregation, % of the response before injection; 4 mg/kg, 60 minutes is 2% and the ex vivo ristocetin-induced platelet aggregation, % of the response before injection; 4 mg/kg, 150 minutes was 16%. In [21], this substance came in with a receptor occupancy of 45.6%. In addition, the receptor occupancy in test [22] was 43.9%. For the same substance, in test [23], the receptor occupancy is 64.8%. Besides, the receptor occupancy in test [24] amounted to 69.3%. In test [25], this substance returned a receptor occupancy of 6.3%. Besides, the KD50 (half saturation) in test [26] was 49.2 nmol/L. Moreover, the receptor occupancy in test [27] was found to be 17.1%. The same substance returned a receptor occupancy in test [28] of 28.6%. In [29], the receptor occupancy was determined as 79%. Also, the receptor occupancy in test [30] is 84%. Besides, the receptor occupancy in test [31] turned out to be 31.3%. For the same substance, in [32], the receptor occupancy came to 34.5%.
For the substance JON/A F(ab)2 (antibody), the Receptor occupancy, % in test [33] was 78.4%; in [34], 67.8%; in test [35], over 95%.

(Values after patent US20090311267A1.)
